This assay concerns the target Recombinant Surface Immunogenic Protein (rSIP) of Group B Streptococcus, expressed in E. coli (Group B Streptococcus (GBS), serotype III). In words: SEC; Size exclusion chromatography by HPLC of purified rSIP; PSS-pro kit as standard curve for molecular mass; 6 M urea used as monomer control. For orientation: SEC sorts molecules by how far they enter the pores of the column.

In the case of “Recombinant Surface Immunogenic Protein (rSIP) of Group B Streptococcus, expressed in E. coli (natural protein)”, the stoichiometry N was 2.

The term stoichiometry N denotes a count of units in the complex or per binding partner.

Values taken from paper PMC7157747.
